Measurements from paper PMC10484793.

B1: mito dsDNA (dsDNA)
DNA 1: TACTCCTCAATTACCCACATAGGATGAATAATAGCAGTTCTACCGTACAA
DNA 2: TTGTACGGTAGAACTGCTATTATTCATCCTATGTGGGTAATTGAGGAGTA
B2: nuc dsDNA (dsDNA)
DNA 1: TTTATTTCTGAGACGGGGTCTTGTGTTGCCCAGGCTGGAGTGTAATGGCA
DNA 2: TGCCATTACACTCCAGCCTGGGCAACACAAGACCCCGTCTCAGAAATAAA

Key:
C17orf80 [1] = molecular target: T1, C17orf80 (Homo sapiens, UniProt Q9BSJ5 1-609); experiment: EMSA
C17orf80 [2] = molecular target: T1, C17orf80; experiment: EMSA; remark: listed apart in the source

T1 sequence (Q9BSJ5 whole entry): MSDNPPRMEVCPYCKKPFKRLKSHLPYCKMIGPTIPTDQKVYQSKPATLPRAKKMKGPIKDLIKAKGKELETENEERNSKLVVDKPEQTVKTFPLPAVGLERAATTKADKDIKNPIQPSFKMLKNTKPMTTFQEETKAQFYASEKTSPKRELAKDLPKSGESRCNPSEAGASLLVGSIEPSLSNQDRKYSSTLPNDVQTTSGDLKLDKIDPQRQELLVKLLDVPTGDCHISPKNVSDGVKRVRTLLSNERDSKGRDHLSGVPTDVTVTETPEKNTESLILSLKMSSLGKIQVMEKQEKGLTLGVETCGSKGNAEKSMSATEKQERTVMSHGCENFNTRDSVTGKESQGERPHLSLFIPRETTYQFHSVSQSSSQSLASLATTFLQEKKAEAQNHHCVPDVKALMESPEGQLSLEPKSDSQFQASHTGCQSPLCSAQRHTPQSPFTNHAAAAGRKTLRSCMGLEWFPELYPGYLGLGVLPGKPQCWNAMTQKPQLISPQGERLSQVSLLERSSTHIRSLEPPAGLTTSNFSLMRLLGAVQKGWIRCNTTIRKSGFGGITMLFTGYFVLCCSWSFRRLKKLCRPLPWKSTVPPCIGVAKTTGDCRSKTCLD

Row | Binder | Kd (C17orf80 [1]) [µM] | binding result (C17orf80 [2])
1 | B1 | 0.046 ± 0.007 | –
2 | TACTCCTCAATTACCCACATAGGATGAATAATAGCAGTTCTACCGTACAA (ssDNA) [mito ssDNA] | – | no binding
3 | B2 | 0.049 ± 0.003 | –
